The supplement of paper PMC7877785
± gives the uncertainty stated by the source.

Experiment: self-splicing fitness, log relative to wild type (ln ratio); higher = more splicing; Tetrahymena group I intron in knt gene, E. coli kanamycin selection, DiMSum; sequences stand for … in CUCUCU…GGAGGGAAAAGUUAUCAGGCAUGCACCUGGUAGCUAGUCUUUAAACCAAUAGAUUGCAUCGGUUUAAAAGGCAAGACCGUCAAAUUGCGGGAAAGGGGUCAACAGCCGUUCAGUACCAAGUCUCAGGGGAAACUUUGAGAUGGCCUUGCAAAGGGUAUGGUAAUAAGCUGACGGACAUGGUCCUAACCACGCAGCCAAGUCCUAAGUCAACAGAUCUUCUGUUGAUAUGGAUGCAGUUCACAGACUAAAUGUCGGUCGGGGAAGAUGUAUUCUUCUCAUAAGAUAUAGUCGGACCUCUCCUUAAUGGGAGCUAGCGGAUGAAGUGAUGCAACACUGGAGCCGCUGGGAACUAAUUUGUAUGCGAAAGUAUAUUGAUUAGUUUUGGAGUACUCGUGGUCG
Summary of the method: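 The eight P1ex-region nucleotides of an intron in the knt kanamycin-resistance gene on pET-22b(+) were all randomised and the library put into E. coli BL21(DE3). Six replicate transformations were grown overnight at 37°C or 30°C on LB agar with or without 25 μg/mL kanamycin, together with 100 μg/mL carbenicillin, 50 μM IPTG and 0.2% rhamnose. Colonies were pooled and amplicon-sequenced on an Illumina HiSeq 2500. Fitness from DiMSum is the error-weighted combination of wild-type-normalised replicate fold changes, kanamycin over none.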

Row | Sequence | self-splicing fitness (ln) (30 °C) | self-splicing fitness (ln) (37 °C)
1 | GAGAAGCAAUAUUACGACAA | -0.787 ± 0.1 | -0.365 ± 0.12
2 | GAGAAGCAAUAUUACGAGUC | -2.11 ± 0.11 | -1.78 ± 0.2
3 | GAGAAGCAAUAUUACGAUAC | -1.73 ± 0.13 | -0.221 ± 0.18
4 | GAGAAGCAAUAUUACGCAUG | -1.99 ± 0.11 | -1.04 ± 0.14
5 | GAGAAGCAAUAUUACGCGAC | -2.78 ± 0.17 | -1.38 ± 0.15
6 | GAGAAGCAAUAUUACGCUAG | -1.66 ± 0.12 | -0.805 ± 0.15
7 | GAGAAGCAAUAUUACGCUGA | -1.49 ± 0.17 | -1.29 ± 0.15
8 | GAGAAGCAAUAUUACGCUUU | -3.35 ± 0.14 | -2.76 ± 0.14
9 | GAGAAGCAAUAUUACGGAGU | -3.2 ± 0.24 | 0.0737 ± 0.12
10 | GAGAAGCAAUAUUACGGCGA | 0.0811 ± 0.15 | -0.777 ± 0.12
11 | GAGAAGCAAUAUUACGGCUG | -0.733 ± 0.088 | -0.161 ± 0.12
12 | GAGAAGCAAUAUUACGGUAC | -2.92 ± 0.23 | -1.54 ± 0.21
13 | GAGAAGCAAUAUUACGGUGG | -2.14 ± 0.14 | -2.93 ± 0.25
14 | GAGAAGCAAUAUUACGUAGC | -3.47 ± 0.35 | -0.876 ± 0.21
15 | GAGAAGCAAUAUUACGUCCU | -1.59 ± 0.23 | 
16 | GAGAAGCAAUAUUACGUCGG | -3.32 ± 0.19 | -2.35 ± 0.24
17 | GAGAAGCAAUAUUACGUGAC | -2.18 ± 0.12 | -1.29 ± 0.17
18 | GAGAAGCAAUAUUACGUGGC | -3.59 ± 0.17 | -0.933 ± 0.11
19 | GAGAAGCAAUAUUACGUGUU | -2.43 ± 0.098 | -1.53 ± 0.14
20 | GAGCAGCAAUAUUACGAAAG | -3.71 ± 0.33 | -1.93 ± 0.22
21 | GAGCAGCAAUAUUACGACCG | -2.42 ± 0.12 | -1.27 ± 0.15
22 | GAGCAGCAAUAUUACGACGA | -0.16 ± 0.15 | 0.077 ± 0.17
23 | GAGCAGCAAUAUUACGAGUG | -2.8 ± 0.17 | -1.09 ± 0.19
24 | GAGCAGCAAUAUUACGAUGC | -1.47 ± 0.092 | -0.514 ± 0.11
25 | GAGCAGCAAUAUUACGCCGA | -1.55 ± 0.17 | -0.726 ± 0.18

Row | Sequence | self-splicing fitness (ln) (30 °C) | self-splicing fitness (ln) (37 °C)
26 | GAGCAGCAAUAUUACGCUGC | -3.72 ± 0.18 | -3.06 ± 0.27
27 | GAGCAGCAAUAUUACGCUUA | -0.991 ± 0.077 | -0.238 ± 0.11
28 | GAGCAGCAAUAUUACGGACA | -2.64 ± 0.15 | -1.53 ± 0.12
29 | GAGCAGCAAUAUUACGGGGC | -3.57 ± 0.21 | -2.52 ± 0.25
30 | GAGCAGCAAUAUUACGGGUU | -2.44 ± 0.14 | -2.02 ± 0.16
31 | GAGCAGCAAUAUUACGGUUC | -3.92 ± 0.42 | -1.9 ± 0.38
32 | GAGCAGCAAUAUUACGUCCU | -0.165 ± 0.12 | -0.134 ± 0.16
33 | GAGCAGCAAUAUUACGUGGC | -3.71 ± 0.27 | -1.63 ± 0.14
34 | GAGCAGCAAUAUUACGUUAU | -1.77 ± 0.087 | -1.3 ± 0.12
35 | GAGGAGCAAUAUUACGAAAU | -3 ± 0.4 | -1.14 ± 0.23
36 | GAGGAGCAAUAUUACGAAUA | -3.68 ± 0.4 | -3.08 ± 0.38
37 | GAGGAGCAAUAUUACGAGAA | -1.98 ± 0.41 | -2.44 ± 0.33
38 | GAGGAGCAAUAUUACGAUGC | -2.85 ± 0.26 | -1.21 ± 0.21
39 | GAGGAGCAAUAUUACGAUUC | -3.4 ± 0.27 | -1.65 ± 0.22
40 | GAGGAGCAAUAUUACGCAUA | -1.86 ± 0.35 | 
41 | GAGGAGCAAUAUUACGCCGA | -1.95 ± 0.33 | -1.77 ± 0.28
42 | GAGGAGCAAUAUUACGGACC |  | -0.0508 ± 0.35
43 | GAGGAGCAAUAUUACGGAUA | -3.62 ± 0.28 | -2.33 ± 0.37
44 | GAGGAGCAAUAUUACGGCCU | -1.99 ± 0.38 | 
45 | GAGGAGCAAUAUUACGGCUG | -1.48 ± 0.15 | -1.88 ± 0.31
46 | GAGGAGCAAUAUUACGGGUC | -2.98 ± 0.17 | -3.24 ± 0.32
47 | GAGGAGCAAUAUUACGGUAC |  | -2.14 ± 0.26
48 | GAGGAGCAAUAUUACGGUGA | -3.55 ± 0.37 | -1.49 ± 0.28
49 | GAGGAGCAAUAUUACGUAUA |  | -2.74 ± 0.4
50 | GAGGAGCAAUAUUACGUAUU | -3.47 ± 0.32 | 0.0104 ± 0.25
